# Laboratory results taken from patent publication US8703460B2, “Method for the production of an additive for the enzymatic decomposition of mycotoxins, additive, and use thereof” (Erber Aktiengesellschaft, priority 2008, dated 2014).
# B1: aminotransferase ID No. 25: HFB1 aminotransferase encoded by sequence ID No. 24 (protein, listed as Caulobacter sp.)
# chain: MELSRQRDQALRERAQAVIPGGMYGHESTYLMPEGTPQFFSRGKGARLWDADGNEYVDYMCAYGPNLLGYGFEPVEAAAAAQQARGDTLTGPSEVMVQLAEDFVAQISHADWAMFCKNGTDATSMAMVIARAHTGRKTILCAKGAYHGAAPWCTPILAGTLPEDRAFVVYYDYNDAQSLVDAFEAHQDDVAAIFATPHRHEVFSDQIDPDPEYAASVRALCDKSGALLVVDEVRAGFRIARDCSWAKIGVAPDLSTWGKCFANGYPISAVLGGEKVRSAAKAVYVTGSFWFSATPMAAAVETLKQIRETDYLERINAAGTRLREGLQQQAAHNGFTLRQTGPVSMPQVLFEEDPDFRVGYGWVRECLKRGVYFSPYHNMFLSAAHSEADLAKTLAATGDAFVELRAKLPSLEIHQPLLALRAA
# modifications: Seq ID 25
# B2: aminotransferase ID No. 19: HFB1 aminotransferase encoded by fumI (sequence ID No. 18) (protein, listed as Sphingopyxis sp.)
# chain: MANGTRQKDLRERAERVIPGGMYGHESTRLLPPEFPQFFRRALGARIWDADEQPYIDYMCAYGPNLLGYRQSEIEAAADAQRLLGDTMTGPSEIMVNLAEAFVGMVRHADWAMFCKNGSDATSTAMVLARAHTGRKTILCAKGAYHGASPWNTPHTAGILASDRVHVAYYTYNDAQSLSDAFKAHDGDIAAVFATPFRHEVFEDQALAQLEFARTARKCCDETGALLVVDDVRAGFRVARDCSWTHLGIEPDLSCWGKCFANGYPISALLGSNKARDAARDIFVTGSFWFSAVPMAAAIETLRIIRETPYLETLIASGAALRAGLEAQSQRHGLELKQTGPAQMPQIFFADDPDFRIGYAWAAACLKGGVYVHPYHNMFLSAAHTVDDVTETLEATDRAFSAVLRDFASLQPHPILMQLAGA
# modifications: Seq ID 19 (FumI)
# Assays:
# piglets = assay: Feeding test with piglets; assay type: in vivo, pigs; details: Positive control: 4-5.5 ppm fumonisin B1 in feed, no enzyme
# Experimental: The test was performed in a test stable with 12 stalls for 10 animals each. The stable was equipped with a slatted floor, pan troughs and a computer-controlled feeding system. The automats were arranged along the stall walls. Every day, the stable climate was automatically recorded, and the temperature was set according to the standard recommendations for piglet breeding.
# For this test, 120 mixed-sex weaned pigs (age: about 4 weeks, average setting weight: 8.21 kg) were used. Each piglet was earmarked and individually weighed. The 120 piglets were randomly distributed among 12 stalls. All piglets came from the Austrian Breeding Program ÖHYB (=(large white×landrace)×Pietrain).
# Immediately upon weaning, the piglets were fed with a starter feed for two days, after this settling-in period the changeover to the test feed took place. Feeding was effected in two phases: Weaning phase days 1-14, breeding phase days 15-42. The test feed was mixed individually per stall via the spotmix feeding installation and allotted in dry form twice a day as a function of the number of piglets, weight development and feed consumption. Water was available ad libitum. The 12 stalls were divided into four different application groups at three repetitions each and received the following admixtures in the above-described feed: […]
# [1] = Catalytic activity of HFB1 aminotransferase in E. coli lysate; assay type: biochemical; details: 25° C.; for degradation of the hydrolyzed fumonisin to 2-keto-HFB1: cosubstrate added (α-keto acid e.g. pyruvic acid, or oxalacetate); for reduction of the hydrolyzed FB1 concentration: no cosubstrate, 50 mM sodium phosphate buffer
# Experimental: Sequences ID Nos. 18 and 24 were cloned using standard procedures and expressed in E. coli under the control of a bacteriophage T7 promoter. The bacterial cells were collected, resuspended in 50 mM sodium phosphate buffer and lyzed under ultrasonic action. Hydrolyzed fumonisin was added, and the samples were incubated at 25° C. Samples were taken at time intervals and analyzed by HPLC-MS/MS. No reduction of the hydrolyzed FB1 concentration was observed. […] This substance is totally harmless for mammals.
# [2] = assay type: biochemical; details: corn mash after carboxylesterase treatment; FIG. 5
# Experimental: Samples of corn mash for the production of bioethanol were taken and incubated at 30 to 65° C. under stirring, the degradation of fumonisin B1 having been investigated after the addition of 770 units of carboxylesterase ID No. 9 per cubic meter of mash under stirring (stirring time in minutes). Samples were inactivated by boiling-up after having been taken and subsequently centrifuged for analysis, and an aliquot of the supernatant was evaporated. The residue was taken up in 200 μl sample buffer containing C^13-labelled internal fumonisin standard, shaken for 1.5 min, centrifuged off, and then subjected to LC-MS-analysis.
Molecule,respiratory problems observed (piglets),"Final weight (average, kg) (piglets; 42 days)",degradation of the hydrolyzed fumonisin to 2-keto-HFB1 [1],reduction of the hydrolyzed FB1 concentration [1],degradation of hydrolyzed fumonisin HFB1 [2]
CCCC[C@@H](C)[C@@H](OC(=O)C[C@@H](CC(=O)O)C(=O)O)[C@H](C[C@@H](C)C[C@H](O)CCCC[C@@H](O)C[C@H](O)[C@H](C)N)OC(=O)C[C@@H](CC(=O)O)C(=O)O [fumonisin B1],almost half of the animals,24.77 kg,–,–,–
B1,–,–,complete degradation,No reduction,–
B2,–,–,complete degradation,No reduction,completely degraded
